Data set [1] relates to GL-261 glioma cells. Put plainly: Survival in the GL-261 orthotopic murine glioma model. The conditions noted are these: for # censored mice: n=22, Day 71. The format is in vivo. As to the method:
(§1) In an orthotopic murine glioma model, C57B6 mice were inoculated with 3 × 10^5 GL-261 glioma cells in the frontal lobe via intracranial injection with drug treatment on Day 5. Mice were randomly assigned (n=22/group) to receive a single intratumoral dose of mPCX12 at 0.5, 0.75, and 1 mg, or mrIL-12 1 µg (equivalent to mPCX12 1 mg) or empty shells or vehicle. In addition, lomustine (6 mg/kg, QDx5 i.p.) was also assessed. […] At 1 mg mPCX12, tumor IL-12 and IFNy levels were 2069±631 and 646±8 pg/mg respectively on Day 3. […] At Day 90, 41%, 45%, and 55% of the animals that received doses of 0.5, 0.75 or 1 mg mPCX12, respectively, were alive with median survival >90 days (last day of study).
In a second study, GL-261 inoculated mice (n=22 per group) received a single dose of mPCX12 at 0.5, 0.75, and 1 mg. Control treatment groups were, mrIL-12, 0.5 and 1 µg (equivalent to mPCX12 0.5 and 1 mg) or empty shells (1 mg) or vehicle control intratumoral. In addition, lomustine (6 mg/kg, QDx5 i.p.) was also assessed. Day 71 was the last day of the study. Animals were euthanized when they became moribund.
PCX12 (1 mg) >50% of mice survived to the end of the study (Day 71) and were tumor-free.

The subject of data set [2] is GL-261 glioma cells. On the set-up: species or system C57B6 mice. The following applies: mouse, in vivo. How it is done:
as §1
In the first study, six days post GL-261 inoculation, a single dose of mPCX12 at 0.5, 0.75, and 1 mg was administered to 4 animals per timepoint (TP). Control treatment groups were, mrIL-12 1 µg (equivalent to mPCX12 1 mg) or empty shells. In addition, lomustine (6 mg/kg, QDx5 i.p.) was also assessed. At 3- and 7-days post drug administration, animals were euthanized, serum and tumor IL-12 and IFN-γ levels were determined via ELISA.
Low levels of IL-12 and IFN-γ observed in the systemic circulation of mPCX12 and mrIL-12 groups. FIGS. 1A-D: All values expressed as Mean +/- SEM; n=4 per timepoint; ND: Not Detected.

Consider `O=NN(CCCl)C(=O)NC1CCCCC1` [Lomustine, lomustine, reference compound], for which the “% alive at 71 Days Post Treatment” value in the data set with GL-261 glioma cells [1] (Lomustine 6 mg/kg QDx5 i.p.) is on record as 18%. For the same molecule, the “# censored mice” value in the data set on GL-261 glioma cells [1] (Lomustine 6 mg/kg QDx5 i.p.) was 4. The “Median survival” value in the data set with GL-261 glioma cells [1] (Lomustine 6 mg/kg QDx5 i.p., study end Day 71) is 38 days; in the data set with GL-261 glioma cells [1] (lomustine 6 mg/kg QDx5 i.p., text b126 (last day of study Day 90)), 20 days.

B1: rmIL-12: mouse recombinant IL-12, unencapsulated control; 1 µg equivalent to mPCX12 1 mg (protein, UniProt P43431 23-215; P43432 23-335, looked up)
Interleukin-12 subunit alpha: RVIPVSGPARCLSQSRNLLKTTDDMVKTAREKLKHYSCTAEDIDHEDITRDQTSTLKTCLPLELHKNESCLATRETSSTTRGSCLPPQKTSLMMTLCLGSIYEDLKMYQTEFQAINAALQNHNHQQIILDKGMLVAIDELMQSLNHNGETLRQKPPVGEADPYRVKMKLCILLHAFSTRVVTINRVMGYLSSA
Interleukin-12 subunit beta: MWELEKDVYVVEVDWTPDAPGETVNLTCDTPEEDDITWTSDQRHGVIGSGKTLTITVKEFLDAGQYTCHKGGETLSHSHLLLHKKENGIWSTEILKNFKNKTFLKCEAPNYSGRFTCSWLVQRNMDLKFNIKSSSSSPDSRAVTCGMASLSAEKVTLDQRDYEKYSVSCQEDVTCPTAEETLPIELALEARQQNKYENYSTSFFIRDIIKPDPPKNLQMKPLKNSQVEVSWEYPDSWSTPHSYFSLKFFVRIQRKKEKMKETEEGCNQKGAFLVEKTSTEVQCKGGNVCVQAQDRYYNSSCSKWACVPCRVRS
With B1, the “IL-12 and IFNγ in the systemic circulation” value in the data set on GL-261 glioma cells [2] is “Low levels”. Also, the “tumor IL-12 persistence by Day 7” value in the data set on GL-261 glioma cells [2] is “returned to baseline”. Moreover, the Median survival amounted to 37 days in the data set on GL-261 glioma cells [1] (mrIL-12 1 µg intratumoral, text b126 (last day of study Day 90)); 38 days with GL-261 glioma cells [1] (rmIL-12 0.5 µg intratumoral, study end Day 71); 37 days in the data set on GL-261 glioma cells [1] (rmIL-12 1 µg intratumoral, study end Day 71). In addition, the entries for the “% alive at 71 Days Post Treatment” value with GL-261 glioma cells [1] (rmIL-12 0.5 µg) and in the data set on GL-261 glioma cells [1] (rmIL-12 1 µg) were 45% and 41%, respectively. For the same molecule, the “# censored mice” value was determined as 10 with GL-261 glioma cells [1] (rmIL-12 0.5 µg) and 9 with GL-261 glioma cells [1] (rmIL-12 1 µg).
